One assay has as its target T1, recombinant uPAR-Biotin (human, UniProt Q03405 23-303, limits assumed, biotin, site not stated).
T1 construct: also called human uPAR (BLItz)
The experiment in a line: BLItz, uPAR-Biotin on streptavidin biosensor.

For assay [1], the target named is T2, Human uPAR-His recombinant protein (human, UniProt Q03405 23-303).
T2 construct: Bought protein; also called recombinant human uPAR; recombinant human uPAR protein; not shown: His tag
Put plainly: ELISA, uPAR-His coated, anti-FLAG-HRP detection.

Assay [2] has as its target T2, Human uPAR-His recombinant protein. The experiment in a line: ELISA, recombinant human uPAR coated, anti-human IgG1 Fc-HRP detection.
Protocol: (§1) ELISA: The binding and specificity of VH, VH-Fc, and DbTE to uPAR or CD3 were analyzed by ELISA. uPAR-His protein or CD3 protein was coated at 50 ng/well at 4° C. overnight, then blocked with 5% milk for 1 hours at 37° C. After washing 3 times by 0.05% PBST, 3-fold serially diluted VH and VH-Fc binders were incubated on the plate for 1 hour at 37° C. The binding of VH candidates was detected by anti-FLAG M2-peroxidase (HRP) antibody (Sigma-Aldrich) while VH-Fc or DbTE binding was detected by HRP conjugated goat anti-human IgG1 Fc (Sigma-Aldrich) at 1:1000 dilution. The plates were washed 3 times by 0.05% PBST between each reagent's incubation. Binding activity was detected using 3,3′,5,5′-tetramethylbenzidine (Sigma-Aldrich) and was stopped by TMB stop buffer (ScyTek Laboratories). Absorbance was read at 450 nm.
In another assay the target is human CD3 protein (human). Put plainly: ELISA, human CD3 protein coated, anti-human IgG1 Fc-HRP detection.

Protocol for human CD3 protein: as §1
Protocol for recombinant uPAR-Biotin: BLItz: DPBS was used to establish a baseline for 30 s. […] Dissociation was monitored in DPBS for 4 min.

B1: VH 3 (VHH)
VHH: EVQLVESGGGLVQPGGSLRLSCAASGFTFSRYWMSWVRQAPGKALEWIGEINHSGSTNYNPSLKSLVTISRDNSKNTLYLQMNSLRAEDTATYYCARSLVPALSYYYYYGMDVWGQGTTVTVSS
notes: Fully human single VH domain from a phage library, expressed in E. coli; It was purified on Ni-NTA and detected with anti-FLAG, so a His tag and a FLAG tag are implied; also called clone 3; anti-uPAR VH 3
For B1, in the assay with recombinant uPAR-Biotin, the Kd stood at 17.1 nM, the koff worked out at 0.0014 s⁻¹ and the kon amounted to 79000 M⁻¹ s⁻¹. In assay [1], the EC50 was determined as 12.1 nM.

B2: DbTE 115 (bispecific antibody, human IgG1)
chain: EVQLVESGGGLVQPGGSLRLSCKGSGFTFGDYAIGWVRQAPGQRLEWIGWINTNSGSPKYAQGFTGRFTISRDNSKNTLYLQMNSLRAEDTAVYYCATDVVVPWGQGSQVTVSSGSGSSGSGSSGSGSSQVQLVQSGGGVVQPGRSLRLSCKASGYTFTRYTMHWVRQAPGKGLEWIGYINPSRGYTNYNQKVKDRFTISRDNSKNTAFLQMDSLRPEDTGVYFCARYYDDHYCLDYWGQGTPVTVSSGGGGSGGGGSGGGGSGGGGSGGGGSGGGGSDIQMTQSPSSLSASVGDRVTITCSASSSVSYMNWYQQTPGKAPKRWIYDTSKLASGVPSRFSGSGSGTDYTFTISSLQPEDIATYYCQQWSSNPFTFGQGTKLQITRGSGSSGDKTHTCPPCPAPEAAGGPSVFLFPPKPKDTLMISRTPEVTCVVVDVSHEDPEVKFNWYVDGVEVHNAKTKPREEQYNSTYRVVSVLTVLHQDWLNGKEYKCKVSNKALGAPIEKTISKAKGQPREPQVYTLPPSRDELTKNQVSLTCLVKGFYPSDIAVEWESNGQPENNYKTTPPVLDSDGSFFLYSKLTVDKSRWQQGNVFSCSVMHEALHNHYTQKSLSLSPGKGSHHHHHH
As to B2, in the assay with recombinant uPAR-Biotin, the Kd came to 1.2 nM, the koff was found to be 4.2e-05 s⁻¹ and the kon came to 36000 M⁻¹ s⁻¹. Besides, in assay [2], the EC50 was determined as 28 nM. The same molecule came in with a concentration for a half-maximal effect (EC50) in the assay with human CD3 protein of 8.7 nM.

B3: VH 115 (VHH)
VHH: EVQLVESGGGLVQPGGSLRLSCKGSGFTFGDYAIGWVRQAPGQRLEWIGWINTNSGSPKYAQGFTGRFTISRDNSKNTLYLQMNSLRAEDTAVYYCATDVVVPWGQGSQVTVSS
notes: Fully human single VH domain from a phage library, expressed in E. coli; It was purified on Ni-NTA and detected with anti-FLAG, so a His tag and a FLAG tag are implied
In the case of B3, in the assay with recombinant uPAR-Biotin, the equilibrium dissociation constant (Kd) is 1.7 nM, the koff stood at 3.6e-05 s⁻¹ and the kon was found to be 21000 M⁻¹ s⁻¹. Also, in assay [1], the EC50 was found to be 34.2 nM.

B4: DbTE 3 (bispecific antibody, human IgG1)
chain: EVQLVESGGGLVQPGGSLRLSCAASGFTFSRYWMSWVRQAPGKALEWIGEINHSGSTNYNPSLKSLVTISRDNSKNTLYLQMNSLRAEDTATYYCARSLVPALSYYYYYGMDVWGQGTTVTVSSGSGSSGSGSSGSGSSQVQLVQSGGGVVQPGRSLRLSCKASGYTFTRYTMHWVRQAPGKGLEWIGYINPSRGYTNYNQKVKDRFTISRDNSKNTAFLQMDSLRPEDTGVYFCARYYDDHYCLDYWGQGTPVTVSSGGGGSGGGGSGGGGSGGGGSGGGGSGGGGSDIQMTQSPSSLSASVGDRVTITCSASSSVSYMNWYQQTPGKAPKRWIYDTSKLASGVPSRFSGSGSGTDYTFTISSLQPEDIATYYCQQWSSNPFTFGQGTKLQITRGSGSSGDKTHTCPPCPAPEAAGGPSVFLFPPKPKDTLMISRTPEVTCVVVDVSHEDPEVKFNWYVDGVEVHNAKTKPREEQYNSTYRVVSVLTVLHQDWLNGKEYKCKVSNKALGAPIEKTISKAKGQPREPQVYTLPPSRDELTKNQVSLTCLVKGFYPSDIAVEWESNGQPENNYKTTPPVLDSDGSFFLYSKLTVDKSRWQQGNVFSCSVMHEALHNHYTQKSLSLSPGKGSHHHHHH
notes: Single chain: VH 3, linker, humanized OKT3 scFv (VH-(G4S)6-VL), human IgG1 Fc with LALAPG mutations, His tag; also called anti-uPAR DbTE 3; domain-based bispecific T cell engager 3
Take B4: in the assay with recombinant uPAR-Biotin, the Kd was 6.6 nM, the koff is 0.00072 s⁻¹ and the kon amounted to 110000 M⁻¹ s⁻¹. In addition, the EC50 in assay [2] is 7.7 nM. The molecule also had an EC50 with human CD3 protein of 28.8 nM.

Values taken from patent publication US20240417485A1 (UNIVERSITY OF PITTSBURGH OF THE COMMONWEALTH SYSTEM OF …, published 2024).
